This note sets out measurements from US20190233521A1 (GENEFRONTIER, published 2019).

Experiment [1] deals with T1, human CD69 partial peptide #24 (MNFLKRYAGREE) (human).
T1 construct: Immobilized on a PepSpots peptide array (JPT)
T1 peptide: MNFLKRYAGREE
The experiment can be described thus: peptide array (PepSpots), HRP-labelled antibody. From the text:
(§1) To be specific, as shown in the following Table, a peptide array consisting of peptides having the residue number of 12 amino acid residues and an offset of 3 amino acid residues was produced for a sequence covering the extracellular domain of human CD69 (60-199) (PepSpots, manufactured by JPT). The peptide array and the anti-human CD69 antibody were reacted according to the manual of JPT. Anti-human CD69 antibodies labeled with HRP (Peroxidase Labeling Kit-NH2, manufactured by Dojindo) were used.

For experiment [2], the target named is T2, human CD69 partial peptide #25 (LKRYAGREEHWV) (human).
T2 construct: Immobilized on a PepSpots peptide array (JPT)
T2 peptide: LKRYAGREEHWV
Description: peptide array (PepSpots), HRP-labelled antibody.
Description: as §1

The target in experiment [3] is T3, human CD69 partial peptide #26 (YAGREEHWVGLK) (human).
T3 construct: Immobilized on a PepSpots peptide array (JPT)
T3 peptide: YAGREEHWVGLK
The experiment can be described thus: peptide array (PepSpots), HRP-labelled antibody.
Description: as §1

Experiment [4] deals with T4, human CD69 recombinant protein (extracellular region 62-199, homodimer) (human, UniProt Q07108 62-199).
T4 construct: Expressed in the E. coli periplasm from cDNA NM_001781; also called human CD69 homodimer protein; extracellular domain of human CD69
T4 sequence: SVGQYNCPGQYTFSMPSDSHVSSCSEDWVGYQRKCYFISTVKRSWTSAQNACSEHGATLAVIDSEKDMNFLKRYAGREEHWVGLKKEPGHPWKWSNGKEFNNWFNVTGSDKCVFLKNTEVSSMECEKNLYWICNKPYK
Description: Scatchard plot; solution equilibrium with antigen, free IgG measured by ELISA. As to the method:
In the present specification, the KD value relating to the binding affinity of the antibody of the present invention to human CD69 is calculated according to the principle described in Immunoassays (OXFORD UNIVERSITY PRESS, 2000) using a scatchard plot method. An antibody is incubated with various concentrations of antigen (extracellular domain of human CD69) at room temperature for 2 hr until equilibrium, and the amount of free antibody present in the incubation solutions is measured by the ELISA method. The binding constant and dissociation constant (KD value) are determined based on the changes in the amount of free antibody in each equilibrated sample. The antibody concentration during equilibration reaction is to be 0.015 μg/ml, and an ELISA plate for the measurement of the amount of free antibody is to be immobilized with the antigen at 1 μg/ml.
(§2) The affinity of the prepared IgG clones for human CD69 was evaluated by scatchard plot. To be specific, it was calculated according to the principle described in Immunoassays (OXFORD UNIVERSITY PRESS, 2000). An antibody was incubated with various concentrations of antigen at room temperature for 2 hr until it reaches equilibrium, and the amount of free antibody present in the incubation liquids was measured by the ELISA method. The binding constant and dissociation constant (KD value) were determined based on the changes in the amount of free antibody in each equilibrate sample. The concentration of the antibody in the equilibration reaction was set to […], and an ELISA plate immobilized with the antigen at 1 μg/ml was used for the measurement of the amount of free antibody.
A general note: In an ELISA, binding on a coated surface is turned into a signal by an enzyme label.

The target in experiment [5] is T4, human CD69 recombinant protein …. The experiment can be described thus: Scatchard plot KD; reference 160-c76 IgG. As to the method: as §2

B1: 160-c103 IgG antibody (IgG4) (antibody, V domains shown)
VH: QVQLVESGGGLVQPGGSLRLSCAASGFTFSNYYMSWVRQAPGKGLEWVSVISYDGISTHYADSVKGRFTISRDNSKNTLYLQMNSLRAEDTAVYYCARYIGNSLYMDFWGQGTLVTVSS
VL: DIVLTQSPATLSLSPGERATLSCRASQSVSSYLAWYQQKPGQAPRLLIYGTSIRATGVPARFSGSGSGTDFTLTISSLEPEDFATYYCQQEYSSPPTFGQGTKVEIKR
notes: Full IgG made in HEK293T; HRP-labelled in the peptide array
Broadly, the Kd is a measure of binding affinity in units of concentration. For B1, the binding result in experiment [1], in experiment [2] and in experiment [3] was “binds” in each case. Besides, in experiment [4], the Kd came to 7.58 nM.

B2: 160-c7 IgG antibody (IgG4) (antibody, V domains shown)
VH: QVQLVQSGAEVKKPGASVKVSCKASGYTFTSYDMHWVRQAPGQGLEWMGWINPYSGNTNYAQKFQGRVTMTRDTSISTAYMELSSLRSEDTAVYYCARMYYDKDYLSWGTDSWGQGTLVTVSS
VL: DIQMTQSPSSLSASVGDRVTITCRASQDISSYLNWYQQKPGKAPKLLIYGASNLQSGVPSRFSGSGSGTDFTLTISSLQPEDFAVYYCQQYSDYPHTFGQGTKVEIKR
notes: as for B1
For the molecule B2, the binding result in experiment [3] was “binds”. Besides, in experiment [4], the Kd turned out to be 47.6 nM.

B3: 234-61 IgG antibody (IgG4) (antibody, V domains shown)
VH: QVQPGGSLRLSCAASGFTFSNFVMHWVRQAPGKGLEWVSSISGSSSSTYYADSVKGRFTISRDNSKNTLYLQMNSLRAEDTAVYYCARYYYASFDYWGQGTLVTVSS
VL: DIELTQPPSVSVAPGQTARISCSGDSLGSKYVYWYQQKPGQAPVVVIYGDSKRPSGIPERFSGSNSGNTATLTISGTQAEDEADYYCQSYTSFTTKIVFGGGTKLTVLG
With B3, the “fold increase of affinity against 160-c76” value in experiment [5] stood at 9 fold. For the same molecule, in experiment [4], the Kd turned out to be 1.13 nM.

B4: 160-c76 IgG antibody (IgG4) (antibody, V domains shown)
VH: QVQPGGSLRLSCAASGFTFSNFVMHWVRQAPGKGLEWVSSISGSSSSTYYADSVKGRFTISRDNSKNTLYLQMNSLRAEDTAVYYCARYYYASFDYWGQGTLVTVSS
VL: DIELTQPPSVSVAPGQTARISCSGDSLGSKYVYWYQQKPGQAPVVVIYGDSKRPSGIPERFSGSNSGNTATLTISGTQAEDEADYYCQSYDSNIMVFGGGTKLTVLG
notes: Full IgG made in HEK293T
Take B4: the Kd in experiment [4] worked out at 27.8 nM.

B5: 234-83 IgG antibody (IgG4) (antibody, V domains shown)
VH: QVQPGGSLRLSCAASGFTFSNFVMHWVRQAPGKGLEWVSSISGSSSSTYYADSVKGRFTISRDNSKNTLYLQMNSLRAEDTAVYYCARYYYASFDYWGQGTLVTVSS
VL: DIELTQPPSVSVAPGQTARISCSGDSLGSKYVYWYQQKPGQAPVVVIYGDSKRPSGIPERFSGSNSGNTATLTISGTQAEDEADYYCGSYTTGAKSHVFGGGTKLTVLG
notes: HRP-labelled in the peptide array
As for B5, the “fold increase of affinity against 160-c76” value in experiment [5] is ≥ 9 fold. The equilibrium dissociation constant (Kd) in experiment [4] was 2.83 nM.
